Patent publication US20220204580A1 (AstraZeneca / MedImmune, published 2022)
Numbered stars: 1 amine (or outer) side, 2 acyl side, 3 side chain; on linkers, the order of the positions; unused ones are H or OH. Bridge positions count the residues as written; N and C are the ends. Square brackets hold non-standard residues; d marks the D form. Side chains are listed from the residue outwards. Ends that are not written are not given here. * marks the point of attachment. C18 diacid = O=C(O)CCCCCCCCCCCCCCCCC(=O)*; γGlu = O=C(O)[C@H](CCC(=O)[*:2])N[*:1]; Aib = CC(C)(N)C(=O)O

T1: human amylin receptor (calcitonin receptor co-expressed with receptor activity modifying protein, RAMP3) (human, UniProt P30988 25-474; O60896 24-148)
T1 sequence (looked up) 1: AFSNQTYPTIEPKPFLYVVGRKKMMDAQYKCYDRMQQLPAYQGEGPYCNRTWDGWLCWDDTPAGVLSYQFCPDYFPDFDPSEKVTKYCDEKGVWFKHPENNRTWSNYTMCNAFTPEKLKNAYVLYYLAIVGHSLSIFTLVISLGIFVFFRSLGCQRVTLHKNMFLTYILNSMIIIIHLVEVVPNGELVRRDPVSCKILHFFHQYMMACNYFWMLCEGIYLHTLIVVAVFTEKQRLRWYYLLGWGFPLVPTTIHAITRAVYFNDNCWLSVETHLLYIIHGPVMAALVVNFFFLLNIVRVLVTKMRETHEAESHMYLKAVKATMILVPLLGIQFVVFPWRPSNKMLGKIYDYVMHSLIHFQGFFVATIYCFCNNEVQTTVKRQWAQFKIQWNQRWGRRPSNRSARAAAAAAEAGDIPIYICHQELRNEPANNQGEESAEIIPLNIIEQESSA
T1 sequence (looked up) 2: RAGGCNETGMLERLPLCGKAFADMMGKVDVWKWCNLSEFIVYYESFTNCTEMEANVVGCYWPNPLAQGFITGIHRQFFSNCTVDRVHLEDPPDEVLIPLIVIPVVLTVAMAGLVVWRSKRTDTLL

T2: human calcitonin receptor (human, UniProt P30988 25-474)
T2 sequence (looked up): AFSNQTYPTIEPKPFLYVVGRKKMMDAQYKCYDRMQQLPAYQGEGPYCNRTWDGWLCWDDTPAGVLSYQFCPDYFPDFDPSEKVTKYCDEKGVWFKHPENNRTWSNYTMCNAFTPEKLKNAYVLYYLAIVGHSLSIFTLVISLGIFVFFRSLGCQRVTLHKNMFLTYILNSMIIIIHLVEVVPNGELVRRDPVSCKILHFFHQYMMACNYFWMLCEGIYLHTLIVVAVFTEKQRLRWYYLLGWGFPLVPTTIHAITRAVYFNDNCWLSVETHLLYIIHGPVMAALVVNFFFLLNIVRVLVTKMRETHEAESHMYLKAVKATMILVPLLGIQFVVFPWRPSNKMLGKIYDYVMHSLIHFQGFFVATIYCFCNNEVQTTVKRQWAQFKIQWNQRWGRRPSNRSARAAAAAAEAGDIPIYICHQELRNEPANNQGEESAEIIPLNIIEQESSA


Legend:
[1] = target: T1, human amylin receptor (calcitonin …); assay: cell-based or functional assay
[2] = target: T2, human calcitonin receptor; assay: cell-based or functional assay

Binder | EC50 (cAMP production) [1] [nM] | Ratio (EC50 hCTR / EC50 hAMYR3) [1] | EC50 (cAMP production) [2] [nM]
K([γGlu-C18 diacid])CNTATCATQRLANFLRHSS[Aib]NFGPILPPTRVGSNTY-NH2 (disulfide 2-7; N-terminus assumed; SMILES CC[C@H](C)[C@H](NC(=O)[C@@H]1CCCN1C(=O)CNC(=O)[C@H](Cc1ccccc1)NC(=O)[C@H](CC(N)=O)NC(=O)C(C)(C)NC(=O)[C@H](CO)NC(=O)[C@H](CO)NC(=O)[C@H](Cc1c[nH]cn1)NC(=O)[C@H](CCCNC(=N)N)NC(=O)[C@H](CC(C)C)NC(=O)[C@H](Cc1ccccc1)NC(=O)[C@H](CC(N)=O)NC(=O)[C@H](C)NC(=O)[C@H](CC(C)C)NC(=O)[C@H](CCCNC(=N)N)NC(=O)[C@H](CCC(N)=O)NC(=O)[C@@H](NC(=O)[C@H](C)NC(=O)[C@@H]1CSSC[C@H](NC(=O)[C@@H](N)CCCCNC(=O)CC[C@H](NC(=O)CCCCCCCCCCCCCCCCC(=O)O)C(=O)O)C(=O)N[C@@H](CC(N)=O)C(=O)N[C@@H]([C@@H](C)O)C(=O)N[C@@H](C)C(=O)N[C@@H]([C@@H](C)O)C(=O)N1)[C@@H](C)O)C(=O)N[C@@H](CC(C)C)C(=O)N1CCC[C@H]1C(=O)N1CCC[C@H]1C(=O)N[C@H](C(=O)N[C@@H](CCCNC(=N)N)C(=O)N[C@H](C(=O)NCC(=O)N[C@@H](CO)C(=O)N[C@@H](CC(N)=O)C(=O)N[C@H](C(=O)N[C@@H](Cc1ccc(O)cc1)C(N)=O)[C@@H](C)O)C(C)C)[C@@H](C)O) [Peptide 76 (SEQ ID NO: 76)] | 0.209 | 107 | 22.3
K([γGlu-γGlu-C18 diacid])CNTATCATQRLANFLRHSS[Aib]NFGPILPPTRVGSNTY-NH2 (disulfide 2-7; N-terminus assumed; SMILES CC[C@H](C)[C@H](NC(=O)[C@@H]1CCCN1C(=O)CNC(=O)[C@H](Cc1ccccc1)NC(=O)[C@H](CC(N)=O)NC(=O)C(C)(C)NC(=O)[C@H](CO)NC(=O)[C@H](CO)NC(=O)[C@H](Cc1c[nH]cn1)NC(=O)[C@H](CCCNC(=N)N)NC(=O)[C@H](CC(C)C)NC(=O)[C@H](Cc1ccccc1)NC(=O)[C@H](CC(N)=O)NC(=O)[C@H](C)NC(=O)[C@H](CC(C)C)NC(=O)[C@H](CCCNC(=N)N)NC(=O)[C@H](CCC(N)=O)NC(=O)[C@@H](NC(=O)[C@H](C)NC(=O)[C@@H]1CSSC[C@H](NC(=O)[C@@H](N)CCCCNC(=O)CC[C@H](NC(=O)CC[C@H](NC(=O)CCCCCCCCCCCCCCCCC(=O)O)C(=O)O)C(=O)O)C(=O)N[C@@H](CC(N)=O)C(=O)N[C@@H]([C@@H](C)O)C(=O)N[C@@H](C)C(=O)N[C@@H]([C@@H](C)O)C(=O)N1)[C@@H](C)O)C(=O)N[C@@H](CC(C)C)C(=O)N1CCC[C@H]1C(=O)N1CCC[C@H]1C(=O)N[C@H](C(=O)N[C@@H](CCCNC(=N)N)C(=O)N[C@H](C(=O)NCC(=O)N[C@@H](CO)C(=O)N[C@@H](CC(N)=O)C(=O)N[C@H](C(=O)N[C@@H](Cc1ccc(O)cc1)C(N)=O)[C@@H](C)O)C(C)C)[C@@H](C)O) [Peptide 77 (SEQ ID NO: 77)] | 0.231 | 11 | 2.52
K([γGlu-C18 diacid])KCNTATCATQRLANFLVHSS[Aib]NFGPILPPTNV[Aib]SNTY-NH2 (disulfide 3-8; N-terminus assumed; SMILES CC[C@H](C)[C@H](NC(=O)[C@@H]1CCCN1C(=O)CNC(=O)[C@H](Cc1ccccc1)NC(=O)[C@H](CC(N)=O)NC(=O)C(C)(C)NC(=O)[C@H](CO)NC(=O)[C@H](CO)NC(=O)[C@H](Cc1c[nH]cn1)NC(=O)[C@@H](NC(=O)[C@H](CC(C)C)NC(=O)[C@H](Cc1ccccc1)NC(=O)[C@H](CC(N)=O)NC(=O)[C@H](C)NC(=O)[C@H](CC(C)C)NC(=O)[C@H](CCCNC(=N)N)NC(=O)[C@H](CCC(N)=O)NC(=O)[C@@H](NC(=O)[C@H](C)NC(=O)[C@@H]1CSSC[C@H](NC(=O)[C@H](CCCCN)NC(=O)[C@@H](N)CCCCNC(=O)CC[C@H](NC(=O)CCCCCCCCCCCCCCCCC(=O)O)C(=O)O)C(=O)N[C@@H](CC(N)=O)C(=O)N[C@@H]([C@@H](C)O)C(=O)N[C@@H](C)C(=O)N[C@@H]([C@@H](C)O)C(=O)N1)[C@@H](C)O)C(C)C)C(=O)N[C@@H](CC(C)C)C(=O)N1CCC[C@H]1C(=O)N1CCC[C@H]1C(=O)N[C@H](C(=O)N[C@@H](CC(N)=O)C(=O)N[C@H](C(=O)NC(C)(C)C(=O)N[C@@H](CO)C(=O)N[C@@H](CC(N)=O)C(=O)N[C@H](C(=O)N[C@@H](Cc1ccc(O)cc1)C(N)=O)[C@@H](C)O)C(C)C)[C@@H](C)O) [Peptide 81 (SEQ ID NO: 81)] | 0.404 | 7 | 2.76
K([γGlu-C18 diacid])KCNTATCATQRLANFLVHSS[Aib]NFGPI[Aib]PPTNVGSNTY-NH2 (disulfide 3-8; N-terminus assumed; SMILES CC[C@H](C)[C@H](NC(=O)[C@@H]1CCCN1C(=O)CNC(=O)[C@H](Cc1ccccc1)NC(=O)[C@H](CC(N)=O)NC(=O)C(C)(C)NC(=O)[C@H](CO)NC(=O)[C@H](CO)NC(=O)[C@H](Cc1c[nH]cn1)NC(=O)[C@@H](NC(=O)[C@H](CC(C)C)NC(=O)[C@H](Cc1ccccc1)NC(=O)[C@H](CC(N)=O)NC(=O)[C@H](C)NC(=O)[C@H](CC(C)C)NC(=O)[C@H](CCCNC(=N)N)NC(=O)[C@H](CCC(N)=O)NC(=O)[C@@H](NC(=O)[C@H](C)NC(=O)[C@@H]1CSSC[C@H](NC(=O)[C@H](CCCCN)NC(=O)[C@@H](N)CCCCNC(=O)CC[C@H](NC(=O)CCCCCCCCCCCCCCCCC(=O)O)C(=O)O)C(=O)N[C@@H](CC(N)=O)C(=O)N[C@@H]([C@@H](C)O)C(=O)N[C@@H](C)C(=O)N[C@@H]([C@@H](C)O)C(=O)N1)[C@@H](C)O)C(C)C)C(=O)NC(C)(C)C(=O)N1CCC[C@H]1C(=O)N1CCC[C@H]1C(=O)N[C@H](C(=O)N[C@@H](CC(N)=O)C(=O)N[C@H](C(=O)NCC(=O)N[C@@H](CO)C(=O)N[C@@H](CC(N)=O)C(=O)N[C@H](C(=O)N[C@@H](Cc1ccc(O)cc1)C(N)=O)[C@@H](C)O)C(C)C)[C@@H](C)O) [Peptide 79 (SEQ ID NO: 79)] | 0.659 | 7 | 4.8
K([γGlu-C18 diacid])KCNTATCATQRLANFLVHSS[Aib]NFGPILPPT[Aib]VGSNTY-NH2 (disulfide 3-8; N-terminus assumed; SMILES CC[C@H](C)[C@H](NC(=O)[C@@H]1CCCN1C(=O)CNC(=O)[C@H](Cc1ccccc1)NC(=O)[C@H](CC(N)=O)NC(=O)C(C)(C)NC(=O)[C@H](CO)NC(=O)[C@H](CO)NC(=O)[C@H](Cc1c[nH]cn1)NC(=O)[C@@H](NC(=O)[C@H](CC(C)C)NC(=O)[C@H](Cc1ccccc1)NC(=O)[C@H](CC(N)=O)NC(=O)[C@H](C)NC(=O)[C@H](CC(C)C)NC(=O)[C@H](CCCNC(=N)N)NC(=O)[C@H](CCC(N)=O)NC(=O)[C@@H](NC(=O)[C@H](C)NC(=O)[C@@H]1CSSC[C@H](NC(=O)[C@H](CCCCN)NC(=O)[C@@H](N)CCCCNC(=O)CC[C@H](NC(=O)CCCCCCCCCCCCCCCCC(=O)O)C(=O)O)C(=O)N[C@@H](CC(N)=O)C(=O)N[C@@H]([C@@H](C)O)C(=O)N[C@@H](C)C(=O)N[C@@H]([C@@H](C)O)C(=O)N1)[C@@H](C)O)C(C)C)C(=O)N[C@@H](CC(C)C)C(=O)N1CCC[C@H]1C(=O)N1CCC[C@H]1C(=O)N[C@H](C(=O)NC(C)(C)C(=O)N[C@H](C(=O)NCC(=O)N[C@@H](CO)C(=O)N[C@@H](CC(N)=O)C(=O)N[C@H](C(=O)N[C@@H](Cc1ccc(O)cc1)C(N)=O)[C@@H](C)O)C(C)C)[C@@H](C)O) [Peptide 80 (SEQ ID NO: 80)] | 0.407 | 7 | 2.97
K([γGlu-C18 diacid])KCNTATCATQRLANFLVHSS[Aib]NFGP[Aib]LPPTNVGSNTY-NH2 (disulfide 3-8; N-terminus assumed; SMILES CC(C)C[C@H](NC(=O)[C@H](CCCNC(=N)N)NC(=O)[C@H](CCC(N)=O)NC(=O)[C@@H](NC(=O)[C@H](C)NC(=O)[C@@H]1CSSC[C@H](NC(=O)[C@H](CCCCN)NC(=O)[C@@H](N)CCCCNC(=O)CC[C@H](NC(=O)CCCCCCCCCCCCCCCCC(=O)O)C(=O)O)C(=O)N[C@@H](CC(N)=O)C(=O)N[C@@H]([C@@H](C)O)C(=O)N[C@@H](C)C(=O)N[C@@H]([C@@H](C)O)C(=O)N1)[C@@H](C)O)C(=O)N[C@@H](C)C(=O)N[C@@H](CC(N)=O)C(=O)N[C@@H](Cc1ccccc1)C(=O)N[C@@H](CC(C)C)C(=O)N[C@H](C(=O)N[C@@H](Cc1c[nH]cn1)C(=O)N[C@@H](CO)C(=O)N[C@@H](CO)C(=O)NC(C)(C)C(=O)N[C@@H](CC(N)=O)C(=O)N[C@@H](Cc1ccccc1)C(=O)NCC(=O)N1CCC[C@H]1C(=O)NC(C)(C)C(=O)N[C@@H](CC(C)C)C(=O)N1CCC[C@H]1C(=O)N1CCC[C@H]1C(=O)N[C@H](C(=O)N[C@@H](CC(N)=O)C(=O)N[C@H](C(=O)NCC(=O)N[C@@H](CO)C(=O)N[C@@H](CC(N)=O)C(=O)N[C@H](C(=O)N[C@@H](Cc1ccc(O)cc1)C(N)=O)[C@@H](C)O)C(C)C)[C@@H](C)O)C(C)C) [Peptide 78 (SEQ ID NO: 78)] | 0.288 | 11 | 3.15
